Results on 1 substance are retold here after article PMC10357428.

This data set deals with CC(=O)Oc1c[nH]c2ccccc12. As to the kind of experiment: purified protein.

With “CanB (Mtb β-carbonic anhydrase, Rv3588c) (Mycobacterium tuberculosis H37Rv)”, the Km came out at 4.5 ± 0.6 mM.
